Measured values as given in patent US20120231011A1 (APEXIGEN, published 2012).
One block for each binder: values may come before it.

Assays:
[1] = molecular target: T1, IgG Fc-hVEGF-A (Human VEGF 165) fusion protein (rabbit; human, UniProt P15692-4 27-191); assay: competitive ELISA: antibody mixed with IgG Fc-hVEGF, added to plate-bound IgG Fc-VEGFR2 (KDR); bound VEGF detected (OD405) [FIG. 1]
T1 construct: Expressed in HEK 293-6E cells and purified on Protein A; not shown: rabbit IgG Fc

[2] = molecular target: T2, human VEGF (human, UniProt P15692-4 27-191, limits assumed); assay: SPR, BIAcore-3000, human VEGF on CM5 chip
T2 construct: The background describes VEGF as a homodimer
T2 sequence (P15692 other isoform, or with tags, fused parts or gaps limits assumed): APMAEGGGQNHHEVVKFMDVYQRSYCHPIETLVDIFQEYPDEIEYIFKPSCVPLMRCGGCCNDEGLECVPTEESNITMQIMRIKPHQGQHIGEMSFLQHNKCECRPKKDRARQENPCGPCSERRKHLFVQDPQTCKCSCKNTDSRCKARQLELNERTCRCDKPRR

[3] = molecular target: T2, human VEGF; assay: SPR, BIAcore-3000, human VEGF on CM5 chip, experiment 1
[4] = molecular target: T2, human VEGF; assay: SPR, BIAcore-3000, human VEGF on CM5 chip, experiment 2
[5] = molecular target: T2, human VEGF; assay: SPR, BIAcore-3000, human VEGF on CM5 chip; reference AVASTIN
[6] = molecular target: T2, human VEGF; assay: SPR, BIAcore-3000, human VEGF on CM5 chip, average of two experiments
[7] = molecular target: T1, IgG Fc-hVEGF-A (Human VEGF 165) fusion …; assay: competitive ELISA: antibody premixed with IgG Fc-hVEGF, plate coated with IgG Fc-VEGFR2 (KDR)
[8] = molecular target: T1, IgG Fc-hVEGF-A (Human VEGF 165) fusion …; assay: direct binding ELISA on plate-bound IgG Fc-hVEGF, detection with donkey anti-human IgG-AP (OD405) [FIG. 4]

T1 sequence (P15692 other isoform, or with tags, fused parts or gaps limits assumed): as above

B1: recombinant humanized antibody expressed by the HZD-V1 clone (antibody, V domains shown)
VH: QQLVESGGGLVKPGGSLRLSCAASGFSFSNNDVMCWVRQAPGKGLEWIGCIMTTDVVTEYANWAKSRFTVSKDSAKNSVYLQMNSLRAEDTAVYFCARDSVGSPLMSFDLWGPGTLVTVSS
VL: ALQMTQSPSSLSASVGDRVTINCQASQSVYGNNELSWYQQKPGKPPKLLIYRASTLASGVPSRFSGSGSGTDFTLTISSLQPEDVATYYCGGYKSYSNDGNGFGGGTKVEIK
notes: The pairing of VH-HZD1 with VK-HZD1 for clone HZD-V1 is inferred from the names; Variable domains were cloned onto human CH and human CK
IC50 (read off the curve) [1]: ~0.9 mg/L

B3: EPI0030 antibody (humanized rabbit anti-VEGF monoclonal antibody expressed by the HZD-V6 clone) (antibody, human IgG1, kappa, V domains shown)
VH: EVQLVESGGGLVKPGGSLRLSCAASGFSFSNNDVMCWVRQAPGKGLEWIGCIMTTDVVTEYANWAKSRFTVSRDSAKNSVYLQMNSLRAEDTAVYFCARDSVGSPLMSFDLWGPGTLVTVSS
VL: DIQMTQSPSSLSASVGDRVTINCQASQSIYNNNELSWYQQKPGKPPKLLIYRASTLASGVPSRFSGSGSGTDFTLTISSLQPEDVATYYCGGYKSYSNDGNGFGGGTKVEIKR
ratio of Kd to that of AVASTIN [2]: 0.01
Kd [3]: 0.331 nM
Kd [4]: 0.638 nM
ratio of Kd to that of AVASTIN [5]: 0.01 fold (Kd of EPI0030 / Kd of AVASTIN)
Kd [6]: 0.485 nM
IC50 [7]: 0.166 mg/L
EC50 (read off the curve) [8]: ~0.01 mg/L
IC50 (read off the curve) [1]: ~0.9 mg/L

The next lines start with the values.

IC50 (read off the curve) [1]: ~0.9 mg/L
B2: recombinant humanized antibody expressed by the HZD-V2 clone (antibody, V domains shown)
VH: QQLVESGGGLVKPGGSLRLSCAASGFSFSNNDVMCWVRQAPGKGLEWIGCIMTTDVVTEYANWAKSRFTVSRDSAKNSVYLQMNSLRAEDTAVYFCARDSVGSPLMSFDLWGPGTLVTVSS
VL: ALQMTQSPSSLSASVGDRVTINCQASQSIYNNNELSWYQQKPGKPPKLLIYRASTLASGVPSRFSGSGSGTDFTLTISSLQPEDVATYYCGGYKSYSNDGNGFGGGTKVEIK
notes: The pairing of VH-HZD2 with VK-HZD2 for clone HZD-V2 is inferred from the names; Variable domains were cloned onto human CH and human CK

IC50 (read off the curve) [1]: ~0.9 mg/L
B4: recombinant humanized antibody expressed by the HZD-V5 clone (antibody, V domains shown)
VH: EVQLVESGGGLVKPGGSLRLSCAASGFSFSNNDVMCWVRQAPGKGLEWIGCIMTTDVVTEYANWAKSRFTVSKDSAKNSVYLQMNSLRAEDTAVYFCARDSVGSPLMSFDLWGPGTLVTVSS
VL: DIQMTQSPSSLSASVGDRVTINCQASQSVYGNNELSWYQQKPGKPPKLLIYRASTLASGVPSRFSGSGSGTDFTLTISSLQPEDVATYYCGGYKSYSNDGNGFGGGTKVEIK
notes: The pairing of VH-HZD5 with VK-HZD5 for clone HZD-V5 is inferred from the names; Variable domains were cloned onto human CH and human CK
